From PMC6488192 (2019)

How the values were obtained:
Details in all cases: parent: 1; read off a plot
GAP1, endogenous [1] = test: IgG pulldown of TAP-tagged REH2, western blot quantification
[2] = molecular target: REH2-Associated Factor 1 (^H2F1), endogenous (UniProt Q585P3); test: IgG pulldown of TAP-tagged H2F1, western blot quantification
[3] = molecular target: RNA Editing Helicase 2 (REH2), endogenous (UniProt Q581T1); test: as above
GAP1, endogenous [4] = test: as above
REL1 ligase, endogenous = REL1 ligase, endogenous (UniProt P86927); test: IgG pulldown of TAP-tagged H2F1, self-adenylation reaction quantification

Sequence of ^H2F1 wild type with TAP tag (from UniProt Q585P3) Z5 R/K>A (Q585P3 23-524, change not shown): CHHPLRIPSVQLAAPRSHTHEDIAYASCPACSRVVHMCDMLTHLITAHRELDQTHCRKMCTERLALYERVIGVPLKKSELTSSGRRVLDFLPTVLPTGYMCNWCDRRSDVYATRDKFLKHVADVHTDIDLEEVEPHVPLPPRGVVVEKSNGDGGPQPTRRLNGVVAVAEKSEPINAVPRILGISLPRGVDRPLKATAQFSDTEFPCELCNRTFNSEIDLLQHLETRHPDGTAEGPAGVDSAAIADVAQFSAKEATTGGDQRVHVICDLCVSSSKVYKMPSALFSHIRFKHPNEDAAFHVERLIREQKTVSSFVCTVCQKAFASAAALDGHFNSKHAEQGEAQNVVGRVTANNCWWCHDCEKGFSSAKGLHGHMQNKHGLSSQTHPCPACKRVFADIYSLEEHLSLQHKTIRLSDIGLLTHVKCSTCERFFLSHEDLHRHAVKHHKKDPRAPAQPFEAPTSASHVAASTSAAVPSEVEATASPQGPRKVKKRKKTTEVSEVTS
Sequence of REH2-Associated Factor 1 (^H2F1), endogenous (Q585P3 23-524): as the sequence (Q585P3 23-524, change not shown) above
Sequence of ^H2F1 wild type with TAP tag (from UniProt Q585P3) Z1 R/K>A (Q585P3 23-524, change not shown): as above
Sequence of ^H2F1 wild type with TAP tag (from UniProt Q585P3) Z2 R/K>A (Q585P3 23-524, change not shown): as above
Sequence of ^H2F1 wild type with TAP tag (from UniProt Q585P3) Z3 R/K>A (Q585P3 23-524, change not shown): as above

| Substance | ratio to parent (GAP1, endogenous [1]) | ratio to parent [2] | ratio to parent [3] | ratio to parent (GAP1, endogenous [4]) | ratio to parent (REL1 ligase, endogenous) |
| --- | --- | --- | --- | --- | --- |
| RNA Editing Helicase 2 (REH2) wild type with TAP tag (from UniProt Q581T1) H1998E | 0.52 | – | – | – | – |
| RNA Editing Helicase 2 (REH2) wild type with TAP tag (from UniProt Q581T1) K1078A; A1086D | 0.17 | – | – | – | – |
| RNA Editing Helicase 2 (REH2) wild type with TAP tag (from UniProt Q581T1) R1979A | 1 | – | – | – | – |
| RNA Editing Helicase 2 (REH2) wild type with TAP tag (from UniProt Q581T1) R2023A | 0.66 | – | – | – | – |
| ^H2F1 wild type with TAP tag (from UniProt Q585P3) Z1 R/K>A | – | 0.87 | 0.75 | 0.85 | 0.72 |
| ^H2F1 wild type with TAP tag (from UniProt Q585P3) Z2 R/K>A | – | 0.83 | 0.78 | 0.95 | 0.83 |
| ^H2F1 wild type with TAP tag (from UniProt Q585P3) Z3 R/K>A | – | 1.2 | 0.85 | 1 | 0.62 |
| ^H2F1 wild type with TAP tag (from UniProt Q585P3) Z5 R/K>A | – | 1 | 0.97 | 0.99 | 0.77 |
